The supplement of paper PMC9170038

Columns and labels:
MS2 coat protein [1] = assay: apparent KD of MS2 coat protein, switch ON state; designed switch direction (-1 OFF switch, 1 ON switch): 1; higher = weaker reporter binding; details: FMN input: 0 or 200 uM; Eterna round: R93 (includes R88 designs)
Procedure, shortened: (§1)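 Apparent KD was obtained for each design as the median of normalised binding-curve fits over its clusters. RNA switches transcribed on-chip from Illumina sequencing clusters were titrated with SNAP-549-labelled MS2 coat protein (twofold steps, 0.7 or 1.5 nM to 3 µM) in 100 mM Tris-HCl pH 7.5, 80 mM KCl, 4 mM MgCl2, without or with constant ligand.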

MS2 coat protein [2] = assay: apparent KD of MS2 coat protein, switch OFF state (with FMN for OFF switches, without FMN for ON switches); designed switch direction (-1 OFF switch, 1 ON switch): 1; higher = weaker reporter binding; details: FMN input: 0 or 200 uM; Eterna round: R93 (includes R88 designs)
Procedure, shortened: as §1

Row | Sequence | apparent KD of MS2 coat protein (MS2 coat protein [1]) | apparent KD of MS2 coat protein (MS2 coat protein [2])
1 | AGGAAGGAGAGAGAGGAUAUCCAAAGGAAAACAUGAGGAUCACCCAUGUAGAAGGUAGGAAAUUGGGAGAAGGCUCAAGAGACAG [salish99-ss2-126] | 16.8 nM | 49.5 nM
2 | AGGAGACAUGAGGAUCACCCAUGUGAGAAGAGGCGAGGAUAUCGAAAGAAAGAAGAGAAACGAGAAGGCGCGAGCC [salish99-SS1-032] | 28.1 nM | 28.8 nM
3 | AGUCAACAUGAGGAUCACCCAUGUCUGAGAGCAUGAGGAUAUCUAGAUGGGCAGCAUGAUAGAGAAGGCAUGCGCC [Biongear] | 173 nM | 116 nM
4 | AUAAAACAUGAGGAUCACCCAUGUAGAAAUAUGGGAGGAUAUACAAAGACGAAAGUCAAGGUAGAAGGCCUAAAAG [Mat - Same State 1 - Meechl mod - D118] | 39.1 nM | 47.4 nM
5 | AUAAAACAUGAGGAUCACCCAUGUAGAAAUAUGGGAGGAUAUACUAGAUCGAAAGAUCUAGUAGAAGGCCUAAAAG [JL Mod of Eli 1] | 27.6 nM | 60.7 nM
6 | AUAAAACAUGAGGAUCACCCAUGUCAACAAAGUCGAGGAUAUGGGCAAAUAAAAUAAGAACCAGAAGGCGAAUAAU [Teenbexe] | 32.2 nM | 593 nM
7 | AUAAAAUAAAGGGAGGAUAUCUAUAAUAAAACAUGAGGAUCACCCAUGUUAAAAAGAAGAUCAUGGGAGAAGGCCUAAAAUAAAU [SS2 M 30] | 37.9 nM | 46.1 nM
8 | AUAUGAGCUAAUGAGGAUAUCCAUAAUAAGACAUGAGGAUCACCCAUGUAAACAAAACAAUAAUGGGAGAAGGCAUUAGCUCAAU [SS 2 M49] | 45.7 nM | 58.8 nM
9 | AUAUGAGCUAUGGAGGAUAUCCAUAAUAAAACAUGAGGAUCACCCAUGUAAGAAAGAAAAGAAUGGGAGAAGGCCAUAGCUCAAU [SS 2 M44] | 11.6 nM | 13.1 nM
10 | AUGAGGAAGAGAGAGGAUAUCCAAAGGAAAACAUGAGGAUCACCCAUGUAAAAGGUAGGAAAUUGGGAGAAGGCUCAAGAGAGAG [salish99-ss2-065] | 23.4 nM | 44.7 nM
11 | AUGGUGUAGGUACAGGAUAUGUUGCUCGUAACAUGAGGAUCACCCAUGUACCUAUGAGAUUAAAUGCAGAAGGGUGCACACCACG [Usbivece] | 70.1 nM | 35.5 nM
12 | AUUAAACAUGAGGAUCACCCAUGUGGCAAAAGCACAGGAUAUAGGAGUCCGAGCAGACAACUAGAAGGGUGGAAAA [Rixelexe] | 28.8 nM | 53.7 nM
13 | CAAACAACAACACAGGAUAUACAUAUAAUAACAUGAGGAUCACCCAUGUAAGGCAAAAAUAAGCUGUAGAAGGGUGAACACACAA [Default title] | 10.6 nM | 14.1 nM
14 | CAGAAGGAGAGAGAGGAUAUCCAAAGGAAAACAUGAGGAUCACCCAUGUAAAAGGUAGGAAAUUGGGAGAAGGCUCAAGAGAGAG [salish99-ss2-110] | 33.2 nM | 33.3 nM
15 | CAGAGACAUGAGGAUCACCCAUGUAGGAUUAUGGGAGGAUAUACAAAGACGAGAGUCAGAGUAGAAGGCCUAGGAU [salish99-ss1-142] | 21.2 nM | 52.7 nM
16 | CGAAGACAUGAGGAUCACCCAUGUGGGAAUAUGGGAGGAUAUACAAAGACGAGAGUCAGAGUAGAAGGCCUAGGAG [salish99-ss1-106] | 40.2 nM | 59.3 nM
17 | CUGGACAUAGUACAGGAUAUAUGAAUAGUCACAUGAGGAUCACCCAUGUGCAUUUAUAUGCGCACAUAGAAGGGUGGUAGUUAAG [Mat - Same state - Malcolm Mod - D140] | 180 nM | 57.9 nM
18 | GAAAAACAUGAGGAUCACCCAUGUAAAAAAAUGGGAGGAUAUACAAAGACGAAAGUCAAAGUAGAAGGCCUGAAAG [same state 2] | 18 nM | 81.8 nM
19 | GAAAAACAUGAGGAUCACCCAUGUAAGAUAAACACAGGAUAUGCGAAAAGAAACAAAGAAGCAGAAGGGUGAAGAA [Mat - Same State 1 - Tesla mod - 46] | 18 nM | 30.2 nM
20 | GAAAAACAUGAGGAUCACCCAUGUAGAAAUAUGGGAGGAUAUACAAAGACGGAAGUCAAAGUAGAAGGCCUAAAAG [Mat - Same State 1 - Eli mod - D7] | 27.9 nM | 71.2 nM
21 | GAAAAACAUGAGGAUCACCCAUGUAGAAAUAUGGGAGGAUAUACAAAGACGUAAGUCAAAGUAGAAGGCCUAAAAG [Mat - Same State 1 - Eli mod - D8] | 19.1 nM | 76.9 nM
22 | GAAAAACAUGAGGAUCACCCAUGUAGAAAUAUGGGAGGAUAUACAAUGACGAAAGUCAAUGUAGAAGGCCUGAUAG [JL S1 M-MoE mod 4] | 25.7 nM | 74.2 nM

Row | Sequence | apparent KD of MS2 coat protein (MS2 coat protein [1]) | apparent KD of MS2 coat protein (MS2 coat protein [2])
23 | GAAAAACAUGAGGAUCACCCAUGUAGAAAUAUGGGAGGAUAUACGAACUCGAAAGUCAAAGUAGAAGGCCUAAAAG [Garnet 30] | 47 nM | 130 nM
24 | GAAAAACAUGAGGAUCACCCAUGUGAAAAUAUGGGAGGAUAUACGAAGUCGAAAGUCAGAGUAGAAGGCCUAAAAG [Garnet 33] | 26.7 nM | 73.3 nM
25 | GAAAAACAUGAGGAUCACCCAUGUGAAAAUAUGGGAGGAUAUACUAAGACGAAAGUCGAGGUAGAAGGCCUAAAAG [Same State 1.4h (Mat - Mod of Eli - )] | 24.7 nM | 131 nM
26 | GAAAAACAUGAGGAUCACCCAUGUGUAAACACGGGAGGAUAUACAAAGACGUAAGUCAAAGUAGAAGGCCUAAAAG [Garnet 39] | 26.7 nM | 96.5 nM
27 | GAAAAACAUGAGGAUCACCCAUGUGUAAAUAUGGAAGGAUAUACAAAGACGGAAGUCAAAGUAGAAGGUCUAAAAG [Mat - Same State 1 - Eli mod - D18] | 24.5 nM | 30.3 nM
28 | GAAAAACAUGAGGAUCACCCAUGUUAAUAUAUGGGAGGAUAUACAAAGACGAAAGUCAAAGUAGAAGGCCUAAAAG | 19.7 nM | 43.3 nM
29 | GACGGACAUGAGGAUCACCCAUGUCGGAAAAGGCAAGGAUAUGGGCGGUACCAAUUUCGGUCAGAAGGUGCAAAAG [Beenedriar] | 117 nM | 61 nM
30 | GAGGACAUAGUAUAGGAUAUAUGAAUAAUUACAUGAGGAUCACCCAUGUGCAUUUAUAUGCGAACAUAGAAGGGUGGUAGUUAUC [SameState2 Malc#32] | 41.6 nM | 37 nM
31 | GAGGACAUAGUUCAGGAUAUAUGAAUAGUCACAUGAGGAUCACCCAUGUCCAUUUAUAUGGGCACAUAGAAGGGAGGUAGUUAUC [SameState2 Malc#26] | 205 nM | 417 nM
32 | GCAGGGCUACACUAGGAUAUGGGUGUCUAAACAUGAGGAUCACCCAUGUGAUGGCAAAACAAAGCUCAGAAGGAGUCGUAGCCCA [Bebirare] | 14 nM | 24.3 nM
33 | GGAGCCGGCACUGAGGAUAUUCAUAUUAAAACAUGAGGAUCACCCAUGUAGGCCAGAAGGCCUUGGGAGAAGGCAGGUCGGCCCG [Bibimaor] | 18.5 nM | 252 nM
34 | GGAUAACAUGAGGAUCACCCAUGUACAUGGGUACAAGGAUAUGUAAAAUAAAACAAACAAACAGAAGGUGUAAAAA [I'm in a state] | 228 nM | 163 nM
35 | GGGAGACAUGAGGAUCACCCAUGUGAAAACGUGUGAGGAUAUCUAUGGAAACCAUACUGUAGAGAAGGCACUUGUC [Servius Sulpicius Similis] | 45.4 nM | 125 nM
36 | GGGAGACAUGAGGAUCACCCAUGUGAGAAGAGGCGAGGAUAUCGAAAAAAAAAAAAAAAACGAGAAGGCGCGAGAU [salish99-SS1-004] | 74.4 nM | 300 nM
37 | GGGAGGAAGAGAGAGGAUAUCCAAAGGAAAACAUGAGGAUCACCCAUGUAAAAGGUAGGAAAUUGGGAGAAGGCUCAAAAGAGGG [salish99-ss2-038] | 29.8 nM | 40.6 nM
38 | GGUCGACAUGAGGAUCACCCAUGUAAGCCAAGGCAAGGAUAUGGGUAUAGGGUGCUAGGAUUAGAAGGUGCCAAAA [Soredige] | 87.1 nM | 82.8 nM
39 | GUAGACAUAGUUCAGGAUAUAUGAAUAGUCACAUGAGGAUCACCCAUGUGCAUUUAUAUGCGCACAUAGAAGGGAGGUAGUUAAC [Mat - Same state - Malcolm Mod - D122] | 22.3 nM | 20.7 nM
40 | GUCAGGAAGAGAGAGGAUAUCCAAAGGAAAACAUGAGGAUCACCCAUGUAAAAGGUAGGAAAUUGGGAGAAGGCUCAAGAGAGAG [salish99-ss2-095] | 31.5 nM | 48.8 nM
41 | GUUAGGAAGAGAGAGGAUAUCCAAAGGAAAACAUGAGGAUCACCCAUGUAAAAGGUAGGAAAUUGGGAGAAGGCUCAAGAGAGAG [salish99-ss2-079] | 31.9 nM | 37.5 nM
42 | GUUGAACAUGAGGAUCACCCAUGUCUCAACAGUCAAGGAUAUGGGUCAUGCAGAUGAAUACCAGAAGGUGAAUAAA [Zaorxe] | 15.8 nM | 33.6 nM
43 | UAAAAACAUGAGGAUCACCCAUGUAGAAAUAUGGGAGGAUAUACGAAGACGAAAGUCAAAGUAGAAGGCCUAAAAU [Mat - Same State 1 - Eli mod - D104] | 21.8 nM | 58 nM
